Measurements taken from the supplement of paper PMC9112550, “Optimization of the antimicrobial peptide Bac7 by deep mutational scanning” (BMC Biology, 2022).

System: Escherichia coli TOP10
Test: shrunken log2 fold change of peptide-encoding DNA abundance (4.5 h post-induction vs induction); higher = less antimicrobial activity (less host growth inhibition)
Settings: time post-induction: 4.5 h; library: site-saturation at positions 5, 18, 19, 20
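Also: peptides expressed intracellularly from a pBAD plasmid library in pooled LB shake-flask culture, induced with 0.3% L-arabinose, DNA abundance read by NGS, three biological replicates, DESeq2 with apeglm shrinkage.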

Row | Sequence | shrunken log2 fold change
1 | RRIRIRPPRLPRPRPRPNKFPRP | -0.992
2 | RRIRTRPPRLPRPRPRPNCSPRP | -0.435
3 | RRIRNRPPRLPRPRPRPPYAPRP | 0.161
4 | RRIRVRPPRLPRPRPRPVNHPRP | -0.306
5 | RRIRTRPPRLPRPRPRPVGQPRP | 0.00905
6 | RRIRMRPPRLPRPRPRPRVKPRP | 0.494
7 | RRIRIRPPRLPRPRPRPYIIPRP | -0.403
8 | RRIRARPPRLPRPRPRPPWDPRP | 0.72
9 | RRIRDRPPRLPRPRPRPRPVPRP | 0.466
10 | RRIRMRPPRLPRPRPRPHPFPRP | 0.169
11 | RRIRQRPPRLPRPRPRPSDLPRP | -0.333
12 | RRIRIRPPRLPRPRPRPRYEPRP | -0.011
13 | RRIRSRPPRLPRPRPRPCMDPRP | -0.0717
14 | RRIRNRPPRLPRPRPRPGHVPRP | -0.0552
15 | RRIRTRPPRLPRPRPRPDVDPRP | -0.0342
16 | RRIRPRPPRLPRPRPRPLSWPRP | 0.238
17 | RRIRGRPPRLPRPRPRPPVLPRP | 0.25
18 | RRIRKRPPRLPRPRPRPEKQPRP | -0.0582
19 | RRIRGRPPRLPRPRPRPLYCPRP | -0.0212
20 | RRIRFRPPRLPRPRPRPVRRPRP | 0.122
21 | RRIRDRPPRLPRPRPRPWFNPRP | -0.161
22 | RRIRMRPPRLPRPRPRPYYTPRP | 0.0968
23 | RRIRIRPPRLPRPRPRPADAPRP | -0.291
24 | RRIRFRPPRLPRPRPRPVGRPRP | 0.382
25 | RRIRFRPPRLPRPRPRPWHPPRP | -0.409

Row | Sequence | shrunken log2 fold change
26 | RRIRTRPPRLPRPRPRPWSQPRP | 0.0431
27 | RRIRIRPPRLPRPRPRPDTNPRP | -0.73
28 | RRIRHRPPRLPRPRPRPDLEPRP | -0.00264
29 | RRIRVRPPRLPRPRPRPQTCPRP | -0.193
30 | RRIRMRPPRLPRPRPRPPPKPRP | 2.03
31 | RRIRGRPPRLPRPRPRPWHYPRP | 0.0232
32 | RRIRDRPPRLPRPRPRPTVGPRP | 0.351
33 | RRIRCRPPRLPRPRPRPMKYPRP | -0.82
34 | RRIRLRPPRLPRPRPRPSWPPRP | 0.00705
35 | RRIRVRPPRLPRPRPRPENYPRP | -0.0159
36 | RRIRCRPPRLPRPRPRPICDPRP | -0.0093
37 | RRIRQRPPRLPRPRPRPEMEPRP | 0.0171
38 | RRIRDRPPRLPRPRPRPCRTPRP | -0.173
39 | RRIRNRPPRLPRPRPRPWMIPRP | -0.252
40 | RRIRMRPPRLPRPRPRPMYTPRP | -0.71
41 | RRIRTRPPRLPRPRPRPVSQPRP | 0.0169
42 | RRIRGRPPRLPRPRPRPMKSPRP | 0.206
43 | RRIRSRPPRLPRPRPRPPMTPRP | 0.243
44 | RRIRVRPPRLPRPRPRPEWPPRP | 0.225
45 | RRIRERPPRLPRPRPRPIHSPRP | -1.52
46 | RRIRWRPPRLPRPRPRPWARPRP | 0.135
47 | RRIRGRPPRLPRPRPRPWSAPRP | 0.232
48 | RRIRMRPPRLPRPRPRPPWWPRP | 1.01
49 | RRIRERPPRLPRPRPRPAALPRP | -0.0784
50 | RRIRCRPPRLPRPRPRPWPTPRP | 0.0985

Row | Sequence | shrunken log2 fold change
51 | RRIRERPPRLPRPRPRPLWEPRP | -0.281
52 | RRIRDRPPRLPRPRPRPGVFPRP | -0.00239
53 | RRIRDRPPRLPRPRPRPHPAPRP | 0.145
54 | RRIRYRPPRLPRPRPRPMCNPRP | -1.82
55 | RRIRARPPRLPRPRPRPLVVPRP | 0.194
56 | RRIRTRPPRLPRPRPRPAEDPRP | 0.17
57 | RRIRYRPPRLPRPRPRPYEQPRP | -0.0134
58 | RRIRKRPPRLPRPRPRPQGQPRP | -0.00726
59 | RRIRIRPPRLPRPRPRPSTHPRP | -1.02
60 | RRIRARPPRLPRPRPRPHQMPRP | -0.066
61 | RRIRIRPPRLPRPRPRPRHAPRP | 0.128
62 | RRIRSRPPRLPRPRPRPVYQPRP | -1.16
63 | RRIRRRPPRLPRPRPRPNDLPRP | -0.0791
64 | RRIRVRPPRLPRPRPRPCAWPRP | 0.27
65 | RRIRGRPPRLPRPRPRPVSHPRP | 0.389
66 | RRIRYRPPRLPRPRPRPLASPRP | -0.556
67 | RRIRQRPPRLPRPRPRPLEYPRP | -0.082
68 | RRIRERPPRLPRPRPRPGNYPRP | -0.264
69 | RRIRGRPPRLPRPRPRPPNTPRP | 0.516
70 | RRIRHRPPRLPRPRPRPPLTPRP | 0.162
71 | RRIRARPPRLPRPRPRPASKPRP | 0.0747
72 | RRIRHRPPRLPRPRPRPTIFPRP | -0.0675
73 | RRIRQRPPRLPRPRPRPWYIPRP | -0.0906
74 | RRIRIRPPRLPRPRPRPDNVPRP | 0.0156
75 | RRIRSRPPRLPRPRPRPAMMPRP | -0.0721

Row | Sequence | shrunken log2 fold change
76 | RRIRGRPPRLPRPRPRPFTFPRP | -0.0577
77 | RRIRPRPPRLPRPRPRPKVKPRP | -0.236
78 | RRIRLRPPRLPRPRPRPLCGPRP | 0.161
79 | RRIRHRPPRLPRPRPRPHTIPRP | -0.0571
80 | RRIRHRPPRLPRPRPRPAKNPRP | -0.207
81 | RRIRQRPPRLPRPRPRPPQTPRP | 0.33
82 | RRIRPRPPRLPRPRPRPNMTPRP | -0.13
83 | RRIRHRPPRLPRPRPRPNHFPRP | -0.262
84 | RRIRGRPPRLPRPRPRPYITPRP | -0.302
85 | RRIRRRPPRLPRPRPRPNSLPRP | -0.652
86 | RRIRTRPPRLPRPRPRPPMLPRP | 0.0279
87 | RRIRTRPPRLPRPRPRPKGVPRP | 0.253
88 | RRIRERPPRLPRPRPRPCTPPRP | -0.239
89 | RRIRRRPPRLPRPRPRPPPFPRP | 0.938
90 | RRIRFRPPRLPRPRPRPVTNPRP | -0.0718
91 | RRIRQRPPRLPRPRPRPRTDPRP | 0.00812
92 | RRIRHRPPRLPRPRPRPGRFPRP | 0.314
93 | RRIRYRPPRLPRPRPRPCTHPRP | -1.23
94 | RRIRWRPPRLPRPRPRPWQMPRP | 0.0308
95 | RRIRERPPRLPRPRPRPQVLPRP | -0.0121
96 | RRIRYRPPRLPRPRPRPARSPRP | 0.134
97 | RRIRDRPPRLPRPRPRPEVRPRP | 1.91
98 | RRIRRRPPRLPRPRPRPNDEPRP | -0.0407
99 | RRIRYRPPRLPRPRPRPFRYPRP | -0.315
100 | RRIRCRPPRLPRPRPRPEREPRP | 0.108

Row | Sequence | shrunken log2 fold change
101 | RRIRARPPRLPRPRPRPQGHPRP | 0.273
102 | RRIRTRPPRLPRPRPRPMAEPRP | 0.117
103 | RRIRHRPPRLPRPRPRPNRHPRP | -0.281
104 | RRIRVRPPRLPRPRPRPGNYPRP | -0.162
105 | RRIRHRPPRLPRPRPRPSELPRP | 0.0169
106 | RRIRMRPPRLPRPRPRPIQMPRP | -0.0558
107 | RRIRGRPPRLPRPRPRPWYSPRP | -0.471
108 | RRIRMRPPRLPRPRPRPAISPRP | 0.0806
109 | RRIRCRPPRLPRPRPRPHWWPRP | 0.0398
110 | RRIRQRPPRLPRPRPRPWVHPRP | -0.0494
111 | RRIRQRPPRLPRPRPRPNELPRP | -0.24
112 | RRIRWRPPRLPRPRPRPIEFPRP | -0.0119
113 | RRIRHRPPRLPRPRPRPTKFPRP | -0.138
114 | RRIRARPPRLPRPRPRPGWYPRP | 0.437
115 | RRIRHRPPRLPRPRPRPYTTPRP | -1.14
116 | RRIRGRPPRLPRPRPRPYCLPRP | -0.305
117 | RRIRARPPRLPRPRPRPCNIPRP | -0.671
118 | RRIRFRPPRLPRPRPRPWVFPRP | -0.00336
119 | RRIRGRPPRLPRPRPRPVASPRP | 0.623
120 | RRIRLRPPRLPRPRPRPDVDPRP | 0.0667
121 | RRIRGRPPRLPRPRPRPKREPRP | -0.00218
122 | RRIRVRPPRLPRPRPRPEIAPRP | -0.0307
123 | RRIRLRPPRLPRPRPRPSMFPRP | -0.498
124 | RRIRMRPPRLPRPRPRPCPEPRP | 0.123
125 | RRIRVRPPRLPRPRPRPSNEPRP | -0.775

Row | Sequence | shrunken log2 fold change
126 | RRIRYRPPRLPRPRPRPWWYPRP | -0.139
127 | RRIRYRPPRLPRPRPRPFYHPRP | -0.635
128 | RRIRSRPPRLPRPRPRPNPLPRP | 0.182
129 | RRIRERPPRLPRPRPRPARPPRP | 0.626
130 | RRIRSRPPRLPRPRPRPNGPPRP | -0.42
131 | RRIRERPPRLPRPRPRPEENPRP | 0.127
132 | RRIRIRPPRLPRPRPRPMRIPRP | -0.0754
133 | RRIRARPPRLPRPRPRPQYEPRP | 0.181
134 | RRIRNRPPRLPRPRPRPFNTPRP | -0.765
135 | RRIRHRPPRLPRPRPRPFINPRP | -0.205
136 | RRIRSRPPRLPRPRPRPDNEPRP | -0.0519
137 | RRIRKRPPRLPRPRPRPIKQPRP | -0.089
138 | RRIRLRPPRLPRPRPRPNHHPRP | -0.0905
139 | RRIRIRPPRLPRPRPRPSHIPRP | -0.879
140 | RRIRIRPPRLPRPRPRPLLHPRP | -0.221
141 | RRIRIRPPRLPRPRPRPTLKPRP | -0.132
142 | RRIRMRPPRLPRPRPRPNLMPRP | -0.126
143 | RRIRVRPPRLPRPRPRPCTMPRP | -0.193
144 | RRIRLRPPRLPRPRPRPSFVPRP | -0.392
145 | RRIRQRPPRLPRPRPRPCWSPRP | -0.08
146 | RRIRMRPPRLPRPRPRPAWWPRP | 0.879
147 | RRIRWRPPRLPRPRPRPPAHPRP | 0.498
148 | RRIRFRPPRLPRPRPRPIREPRP | -0.0362
149 | RRIRYRPPRLPRPRPRPGYHPRP | -0.00992
150 | RRIRERPPRLPRPRPRPQKPPRP | 0.0657
